Assay results: US20110142849A1 (IRM, published 2011)

Legend:
[1] = target: T1, mouse Pcsk9 with C-terminal his6 tag (mouse, UniProt Q80W65 35-694, limits assumed); experiment: not told in the legend
T1 construct: also called murine PCSK9

[2] = target: T2, recombinant human Pcsk9 (aa 31-692) with C-terminal his6 tag (human, UniProt Q8NBP7 31-692); experiment: TR-FRET, disruption of hLDL-R-Eu and hPcsk9-AF
T2 construct: In the TR-FRET assay it carried a fluorophore (hPcsk9-AF); also called hPCSK9; hPcsk9
Experimental: The TR-FRET assay was performed in 384-well white, shallow plates (Perkin Elmer, 6008280). hPcsk9-AF (10.7 nM) was incubated with serial dilutions of unlabeled hPcsk9 protein, EGF-A peptide, or NVP-LFU720-AX-1 antibody for 30 minutes at room temperature in 15 μL of assay buffer (20 mM HEPES, pH 7.2, 150 mM NaCl, 1 mM CaCl₂, 0.1% v/v Tween 20, and 0.1% w/v BSA). This was followed by addition of 5 μL of hLDL-R-Eu (4 nM) in assay buffer to the hPcsk9 and NVP-LFU720-AX-1 preincubated complex, and incubation at room temperature for 90 minutes. The final concentrations of these labeled proteins were 8 nM of hPcsk9-AF and 1 nM of hLDL-R-Eu. The TR-FRET signal was measured with EnVision 2100 multilabel reader (Perkin Elmer) at 330 nm excitation and 665 nm emission. Data was converted to normalized values using the following formula: [(665 nm value×10,000)/(615 nm value)]. The percentage inhibition was calculated with the following formula: 100-[(normalized value of treated sample/averaged normalized value of untreated samples)×100]. The percentage inhibition dose response curves were plotted using Prism version 5 with the formula, Y=Bottom+(Top−Bottom)/(1+10̂((LogIC₅₀−X)*HillSlope)) (GraphPad Prism Software).
TR-FRET assay was used for determining if the anti-hPcsk9 antibody NVP-LFU720 could disrupt the interaction between hPcsk9-AF and hLDL-R-Eu labeled proteins. […]

[3] = target: T3, human LDL-R protein (human, UniProt P01130 22-788, limits assumed); experiment: ELISA
T3 construct: Labelled with europium in the TR-FRET assay; also called hLDL-R; hLDL-R-Eu (europium-labelled)

[4] = target: T1, mouse Pcsk9 with C-terminal his6 tag; experiment: ELISA

T1 sequence (Q80W65 other isoform, or with tags, fused parts or gaps limits assumed): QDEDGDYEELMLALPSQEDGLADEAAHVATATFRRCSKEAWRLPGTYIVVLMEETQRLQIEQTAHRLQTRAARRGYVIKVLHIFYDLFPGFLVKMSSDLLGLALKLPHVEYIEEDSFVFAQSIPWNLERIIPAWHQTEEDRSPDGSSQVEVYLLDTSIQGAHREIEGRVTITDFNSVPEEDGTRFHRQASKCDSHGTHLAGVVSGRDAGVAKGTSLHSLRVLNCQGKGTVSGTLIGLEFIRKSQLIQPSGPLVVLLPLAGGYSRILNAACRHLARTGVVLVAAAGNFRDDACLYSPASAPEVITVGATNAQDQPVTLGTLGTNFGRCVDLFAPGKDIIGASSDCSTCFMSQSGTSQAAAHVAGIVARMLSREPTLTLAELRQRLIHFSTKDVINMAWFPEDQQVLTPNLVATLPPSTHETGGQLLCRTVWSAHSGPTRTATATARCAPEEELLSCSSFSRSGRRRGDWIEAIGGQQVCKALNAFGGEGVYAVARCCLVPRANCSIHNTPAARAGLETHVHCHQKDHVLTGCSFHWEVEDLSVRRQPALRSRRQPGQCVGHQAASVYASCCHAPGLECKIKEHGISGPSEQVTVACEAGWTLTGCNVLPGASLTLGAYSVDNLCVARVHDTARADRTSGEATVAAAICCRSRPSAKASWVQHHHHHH
T3 sequence (P01130 22-788 limits assumed): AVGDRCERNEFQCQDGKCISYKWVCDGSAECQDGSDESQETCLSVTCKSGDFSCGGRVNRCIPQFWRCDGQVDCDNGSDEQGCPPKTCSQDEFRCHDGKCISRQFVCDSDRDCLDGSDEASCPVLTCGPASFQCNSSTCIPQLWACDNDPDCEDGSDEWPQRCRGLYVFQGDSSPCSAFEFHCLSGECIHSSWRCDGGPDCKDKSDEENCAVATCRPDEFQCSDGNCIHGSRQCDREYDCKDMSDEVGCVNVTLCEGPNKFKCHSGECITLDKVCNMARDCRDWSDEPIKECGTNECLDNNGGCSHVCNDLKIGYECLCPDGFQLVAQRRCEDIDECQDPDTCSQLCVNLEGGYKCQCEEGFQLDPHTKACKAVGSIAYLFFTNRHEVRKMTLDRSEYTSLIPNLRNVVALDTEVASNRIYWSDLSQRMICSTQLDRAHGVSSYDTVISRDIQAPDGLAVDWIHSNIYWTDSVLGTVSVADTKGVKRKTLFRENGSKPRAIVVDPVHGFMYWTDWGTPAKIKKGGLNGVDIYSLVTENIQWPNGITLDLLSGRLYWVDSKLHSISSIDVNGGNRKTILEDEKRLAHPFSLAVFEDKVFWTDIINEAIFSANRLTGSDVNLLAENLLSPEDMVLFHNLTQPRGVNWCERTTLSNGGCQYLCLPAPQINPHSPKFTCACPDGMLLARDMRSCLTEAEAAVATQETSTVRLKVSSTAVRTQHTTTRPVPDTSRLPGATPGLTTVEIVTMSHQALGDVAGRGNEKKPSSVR

B1: NVP-LGT211 (antibody, human IgG1, V domains shown)
VH: QVQLVQSGAEVKKPGASVKVSCKASGYTFSTMYMSWVRQAPGQGLEWMGRIDPANEHTNYAQKFQGRVTMTRDTSISTAYMELSRLTSDDTAVYYCARSYYYYAMDYWGQGTLVTVSS
VL: QIVLTQSPATLSVSPGERATLSCRASQSVSYMHWYQQKPGQAPRLLIYGVFRRATGIPDRFSGSGSGTDFTLTIGRLEPEDFAVYYCLQWSSDPPTFGQGTKLEIKR
notes: Silent human IgG1 kappa; also called pSR74 (Vh) + pJG10 (Vk); pSR074 + pJG10
B1: no binding [1].

B2: NVP-LFU720 (antibody, V domains shown)
VH: EVQLQQSGAELMKPGASVKLSCTASGFNIKDMYMSWVRQRPEQGLEWIGRIDPANGHTNYDPKFQAKATITTDTSSKTAYLHLSSLTSEDTAVYYCARSYYYYAMDYWGQGTSVTVSS
VL: QIVLTQSPAIMSASPGEKVTMTCSASSSVSYMHWYQQKPGSSPRLWIYLTFNLASGVPARFSGSGSGTSYSLSISSMEAEDAATYYCLQWSSDPPTFGSGTKLEIK
notes: Murine anti-human Pcsk9 IgG1-kappa monoclonal antibody from a hybridoma; also called 5P20; NVP-LFU720-AX-1
For B2, the IC50 [2] was > 1 µM, the binding result [3] was “no binding” and the binding result [4] was “no binding”.
